From patent US20110052606A1 (Novo Nordisk, published 2011)
One block for each binder: values may come before it.

Key:
[1] = molecular target: T1, scCD94/NKG2A-mFc, Fc-fusion protein of murine IgG1 fused at the C-terminus with a single-chain construct of … (mouse; human, UniProt Q13241 32-179); experiment: SPR Biacore T100, sc-NKG2A-CD94-mFc immobilized, antibody 1.25-10 nM
[2] = molecular target: T2, human CD94/NKG2A receptor on cells (Ba/F3 cells over-expressing CD94/NKG2A; NKL cells) (human, UniProt Q13241 1-179); experiment: flow cytometry on Ba/F3-CD94/NKG2A cells
T2 construct: whole, on cells; also called Ba/F3-CD94/NKG2A

[3] = molecular target: T1, scCD94/NKG2A-mFc, Fc-fusion protein of …; experiment: SPR Biacore T100, sc-NKG2A-CD94-mFc immobilized, binding level (RU) divided by that of chimZ199
[4] = molecular target: T1, scCD94/NKG2A-mFc, Fc-fusion protein of …; experiment: SPR Biacore T100, sc-NKG2A-CD94-mFc immobilized

T1 sequence (Q13241 other isoform, or with tags, fused parts or gaps): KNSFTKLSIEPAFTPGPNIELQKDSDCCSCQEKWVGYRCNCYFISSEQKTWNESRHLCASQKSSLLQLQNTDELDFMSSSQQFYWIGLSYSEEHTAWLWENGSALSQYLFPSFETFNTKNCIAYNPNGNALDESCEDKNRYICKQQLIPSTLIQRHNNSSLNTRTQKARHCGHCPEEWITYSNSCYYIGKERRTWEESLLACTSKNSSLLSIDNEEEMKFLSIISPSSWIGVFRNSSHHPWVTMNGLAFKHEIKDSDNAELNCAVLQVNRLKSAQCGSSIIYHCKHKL
T2 sequence (chain, as listed by the source, chain 1 of 2): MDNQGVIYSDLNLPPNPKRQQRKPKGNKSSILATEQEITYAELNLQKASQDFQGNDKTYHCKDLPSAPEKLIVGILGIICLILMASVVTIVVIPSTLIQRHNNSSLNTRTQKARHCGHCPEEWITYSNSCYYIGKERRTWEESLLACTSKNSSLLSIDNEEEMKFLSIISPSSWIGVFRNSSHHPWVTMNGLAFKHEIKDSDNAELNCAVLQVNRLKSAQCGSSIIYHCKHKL
T2 sequence (Q13241 whole entry, chain 2 of 2): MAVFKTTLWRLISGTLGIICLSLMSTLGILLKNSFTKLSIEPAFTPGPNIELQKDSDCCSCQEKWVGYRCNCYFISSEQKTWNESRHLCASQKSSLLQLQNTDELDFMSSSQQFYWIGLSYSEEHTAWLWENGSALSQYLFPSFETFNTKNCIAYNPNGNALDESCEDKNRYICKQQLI

Kd [1]: 0.0243 nM
koff [1]: 4.17e-05 s⁻¹
kon [1]: 1.72e+06 M⁻¹ s⁻¹
B1: chimeric Z199 with a human IgG4(S241P) portion (antibody, V domains shown)
VH: EVQLVESGGGLVKPGGSLKLSCAASGFTFSSYAMSWVRQSPEKRLEWVAEISSGGSYTYYPDTVTGRFTISRDNAKNTLYLEISSLRSEDTAMYYCTRHGDYPRFFDVWGAGTTVTVSS
VL: QIVLTQSPALMSASPGEKVTMTCSASSSVSYIYWYQQKPRSSPKPWIYLTSNLASGVPARFSGSGSGTSYSLTISSMEAEDAATYYCQQWSGNPYTFGGGTKLEIKR
notes: also called chimZ199; ChimZ199

relative binding against chimZ199 [3]: ~40%
B3: chimZ199 light-chain alanine mutant L50A (antibody, human IgG4, name in Kabat numbering, V domains shown)
VH: EVQLVESGGGLVKPGGSLKLSCAASGFTFSSYAMSWVRQSPEKRLEWVAEISSGGSYTYYPDTVTGRFTISRDNAKNTLYLEISSLRSEDTAMYYCTRHGDYPRFFDVWGAGTTVTVSS
VL: QIVLTQSPALMSASPGEKVTMTCSASSSVSYIYWYQQKPRSSPKPWIYATSNLASGVPARFSGSGSGTSYSLTISSMEAEDAATYYCQQWSGNPYTFGGGTKLEIKR
notes: Ala-scan mutant made on chimZ199 (human IgG4 constant domains); also called LC: L50A

relative binding against chimZ199 [3]: ~40%
B5: chimZ199 light-chain alanine mutant Y32A (antibody, human IgG4, name in Kabat numbering, V domains shown)
VH: EVQLVESGGGLVKPGGSLKLSCAASGFTFSSYAMSWVRQSPEKRLEWVAEISSGGSYTYYPDTVTGRFTISRDNAKNTLYLEISSLRSEDTAMYYCTRHGDYPRFFDVWGAGTTVTVSS
VL: QIVLTQSPALMSASPGEKVTMTCSASSSVSAIYWYQQKPRSSPKPWIYLTSNLASGVPARFSGSGSGTSYSLTISSMEAEDAATYYCQQWSGNPYTFGGGTKLEIKR
notes: Ala-scan mutant made on chimZ199 (human IgG4 constant domains); also called LC: Y32A

relative binding against chimZ199 [3]: ~40%
B7: chimZ199 light-chain alanine mutant P95A (antibody, human IgG4, name in Kabat numbering, V domains shown)
VH: EVQLVESGGGLVKPGGSLKLSCAASGFTFSSYAMSWVRQSPEKRLEWVAEISSGGSYTYYPDTVTGRFTISRDNAKNTLYLEISSLRSEDTAMYYCTRHGDYPRFFDVWGAGTTVTVSS
VL: QIVLTQSPALMSASPGEKVTMTCSASSSVSYIYWYQQKPRSSPKPWIYLTSNLASGVPARFSGSGSGTSYSLTISSMEAEDAATYYCQQWSGNAYTFGGGTKLEIKR
notes: Ala-scan mutant made on chimZ199 (human IgG4 constant domains); also called LC: P95A

Further lines, the binder ahead of its results:

B2: murine anti-NKG2A antibody Z199 (antibody, V domains shown)
VH: EVQLVESGGGLVKPGGSLKLSCAASGFTFSSYAMSWVRQSPEKRLEWVAEISSGGSYTYYPDTVTGRFTISRDNAKNTLYLEISSLRSEDTAMYYCTRHGDYPRFFDVWGAGTTVTVSS
VL: QIVLTQSPALMSASPGEKVTMTCSASSSVSYIYWYQQKPRSSPKPWIYLTSNLASGVPARFSGSGSGTSYSLTISSMEAEDAATYYCQQWSGNPYTFGGGTKLEIKR
notes: Mouse monoclonal antibody (Beckman Coulter IM2750) and its recombinant form recZ199 made in HEK293 cells; also called recZ199; Z199 (rec)
binding result [2]: binds

B4: chimZ199 heavy-chain alanine mutant P99A (antibody, human IgG4, name in Kabat numbering, V domains shown)
VH: EVQLVESGGGLVKPGGSLKLSCAASGFTFSSYAMSWVRQSPEKRLEWVAEISSGGSYTYYPDTVTGRFTISRDNAKNTLYLEISSLRSEDTAMYYCTRHGDYARFFDVWGAGTTVTVSS
VL: QIVLTQSPALMSASPGEKVTMTCSASSSVSYIYWYQQKPRSSPKPWIYLTSNLASGVPARFSGSGSGTSYSLTISSMEAEDAATYYCQQWSGNPYTFGGGTKLEIKR
notes: Ala-scan mutant made on chimZ199 (human IgG4 constant domains); Kabat numbering; also called HC: P99A
relative binding against chimZ199 [3]: ~40%

B6: chimZ199 heavy-chain alanine mutant Y98A (antibody, human IgG4, name in Kabat numbering, V domains shown)
VH: EVQLVESGGGLVKPGGSLKLSCAASGFTFSSYAMSWVRQSPEKRLEWVAEISSGGSYTYYPDTVTGRFTISRDNAKNTLYLEISSLRSEDTAMYYCTRHGDAPRFFDVWGAGTTVTVSS
VL: QIVLTQSPALMSASPGEKVTMTCSASSSVSYIYWYQQKPRSSPKPWIYLTSNLASGVPARFSGSGSGTSYSLTISSMEAEDAATYYCQQWSGNPYTFGGGTKLEIKR
notes: Ala-scan mutant made on chimZ199 (human IgG4 constant domains); Kabat numbering; also called HC: Y98A
relative binding against chimZ199 [3]: ~40%

B8: chimZ199 heavy-chain alanine mutant Y56A (antibody, human IgG4, name in Kabat numbering, V domains shown)
VH: EVQLVESGGGLVKPGGSLKLSCAASGFTFSSYAMSWVRQSPEKRLEWVAEISSGGSATYYPDTVTGRFTISRDNAKNTLYLEISSLRSEDTAMYYCTRHGDYPRFFDVWGAGTTVTVSS
VL: QIVLTQSPALMSASPGEKVTMTCSASSSVSYIYWYQQKPRSSPKPWIYLTSNLASGVPARFSGSGSGTSYSLTISSMEAEDAATYYCQQWSGNPYTFGGGTKLEIKR
notes: Ala-scan mutant made on chimZ199 (human IgG4 constant domains); Kabat numbering; also called HC: Y56A
relative binding against chimZ199 [3]: ~40%

B9: HumZ199 (LC: L46P) (antibody, name in Kabat numbering, V domains shown)
VH: EVQLVESGGGLVKPGGSLRLSCAASGFTFSSYAMSWVRQAPGKGLEWVSEISSGGSYTYYADSVKGRFTISRDNAKNSLYLQMNSLRAEDTAVYYCARHGDYPRFFDVWGQGTTVTVSS
VL: EIVLTQSPATLSLSPGERATLSCSASSSVSSYIYWYQQKPGQAPRPLIYLTSNLASGIPARFSGSGSGTDFTLTISSLEPEDFAVYYCQQWSGNPYTFGQGTKLEIK
notes: also called huZ199(LC:L46P); humZ199 with single back mutation L46P in the light chain
Kd [1]: 0.072 nM
koff [1]: 0.000122 s⁻¹
kon [1]: 1.7e+06 M⁻¹ s⁻¹
fold difference of affinity against chimeric Z199 [4]: 2.7 fold
